Where no end group is shown, it is not given here. Tds = not defined here
B1: TMEM59 peptide (residues 268–280), wild type (peptide, UniProt Q9BXS4 268-280, looked up)
peptide: Tds-YVPSEKLSIYGDL
modifications: reading uncertain
notes: TMEM59 intracellular domain, residues 268-280; also called active TMEM59 peptide; source: synthetic peptide on microarray, ordered from JPT (Germany)
B2: TMEM59 peptide 268–280 with increased Y268-E272 distance (YVAPAASE) (peptide, UniProt Q9BXS4 268-280, looked up)
peptide: Tds-YVAPAASEKLSIYGDL
modifications: reading uncertain
notes: TMEM59 residues 268-280 with extra alanines between Y268 and E272; only the changed stretch is printed; also called YVAPAASE (Y268-E272); source: synthetic peptide on microarray, ordered from JPT (Germany)
B3: TMEM59 peptide 268–280 with increased E272-Y277 distance (EKAALASAIY) (peptide, UniProt Q9BXS4 268-280, looked up)
peptide: Tds-YVPSEKAALASAIYGDL
modifications: reading uncertain
notes: TMEM59 residues 268-280 with extra alanines between E272 and Y277; only the changed stretch is printed; source: synthetic peptide on microarray, ordered from JPT (Germany)
B4: TMEM59 peptide 268–280 with decreased Y268-E272 distance (YE) (peptide, UniProt Q9BXS4 268-280, looked up)
peptide: Tds-YEKLSIYGDL
modifications: reading uncertain
notes: TMEM59 residues 268-280 with the native residues between Y268 and E272 deleted; only the changed stretch is printed; also called YE (Y268-E272); source: synthetic peptide on microarray, ordered from JPT (Germany)
B5: TMEM59 peptide 268–280 with decreased E272-Y277 distance (ELY) (peptide, UniProt Q9BXS4 268-280, looked up)
peptide: Tds-YVPSELYGDL
modifications: reading uncertain
notes: TMEM59 residues 268-280 with native residues between E272 and Y277 deleted so that one (L) is left; only the changed stretch is printed; source: synthetic peptide on microarray, ordered from JPT (Germany)

biological target: T1, GST-HA-ATG16L1(231–607) (human, UniProt Q676U5 231-607); experiment: peptide or protein array; peptides immobilised on glass slides through the N-terminal end with a Tds spacer (JPT); GST-HA-ATG16L1 fragment in PBS/0,05% Tween-20 with 5% BSA, 20-800 nM, 2 h at RT plus overnight at 4 °C; detected with anti-HA and anti-GST and Cy5-labelled secondary antibodies; binding normalised to the wild-type peptide; settings: both partners purified
T1 construct: ATG16L1, human, residues 231-607 (results and legend); the methods name the construct 230-607; includes the WD40 domain (WDD, 320-607); Limits differ between results (231-607) and methods (230-607); also called GST-HA-ATG16L1-230-607; recombinant protein that includes the WDD; source: HEK-293T, retrovirally transduced, purified (GSH-agarose, eluted with reduced GSH, concentrated)
T1 sequence (Q676U5 231-607): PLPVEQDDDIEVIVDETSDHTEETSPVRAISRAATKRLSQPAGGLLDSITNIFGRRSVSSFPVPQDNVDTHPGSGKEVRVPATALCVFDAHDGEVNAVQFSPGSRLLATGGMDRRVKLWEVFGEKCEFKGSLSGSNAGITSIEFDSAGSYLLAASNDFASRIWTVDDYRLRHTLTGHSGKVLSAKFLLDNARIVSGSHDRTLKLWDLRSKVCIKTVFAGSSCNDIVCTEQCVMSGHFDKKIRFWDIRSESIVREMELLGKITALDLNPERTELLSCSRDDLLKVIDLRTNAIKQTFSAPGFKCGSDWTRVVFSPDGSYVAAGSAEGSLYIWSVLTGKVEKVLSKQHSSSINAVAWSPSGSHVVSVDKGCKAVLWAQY

binding result | Binder
binds | B1
binds | B2
binds | B3
binds | B4
binds | B5
